{"source": "paper PMC2797197", "binders": {"B1": {"name": "41-bp dsDNA (dsDNA)", "DNA 1": "CTCTCTTTGAGGACACCAACCTGGCGGCCATCCACGCCAAG", "DNA 2": "CTTGGCGTGGATGGCCGCCAGGTTGGTGTCCTCAAAGAGAG"}}, "target": "GST-NSD2-SET (Homo sapiens, UniProt O96028 941-1240)", "sequence (O96028 941-1240)": "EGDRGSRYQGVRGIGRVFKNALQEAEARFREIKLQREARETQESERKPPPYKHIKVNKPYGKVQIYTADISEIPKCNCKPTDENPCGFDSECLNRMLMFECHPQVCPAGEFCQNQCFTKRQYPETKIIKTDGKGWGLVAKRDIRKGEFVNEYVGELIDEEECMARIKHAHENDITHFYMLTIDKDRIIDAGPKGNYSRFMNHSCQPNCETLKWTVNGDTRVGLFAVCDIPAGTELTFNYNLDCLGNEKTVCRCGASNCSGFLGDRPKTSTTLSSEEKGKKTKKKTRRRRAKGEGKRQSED", "assay": "EMSA"}
{"binder": "B1", "values": [{"measurement": "binding result", "result": "binds"}]}
